Assay results from publication PMC6138732.

Assays:
Assay in all cases: SEC; Protein A affinity, then S200 size exclusion to purify the hexamer fraction; analytical HPLC; hexamer counts Fc units
[1] = target: IgG1 Fc hexamer (L309) (human)
[2] = target: IgG1 Fc hexamer (L309C) (human)
[3] = target: IgG4 Fc hexamer (L309) (human)
[4] = target: IgG4 Fc hexamer (L309C) (human)

IgG1 Fc hexamer (L309)
stoichiometry N [1]: 6

IgG1 Fc hexamer (L309C)
stoichiometry N [2]: 6

IgG4 Fc hexamer (L309)
stoichiometry N [3]: 6

IgG4 Fc hexamer (L309C)
stoichiometry N [4]: 6
